Test [1] has as its target T1, rhNav1.7α + β1-β2-β3 (rhesus monkey).
T1 construct: also called rhNav1.7-beta1-beta2-beta3; rhNav1.7-β1-β2-β3
Nature of the test: FACS, CHO Flp-In, competitor 1 µM F010300703.

Test [2] addresses T2, huNav1.5-β1-β2-β3 (human).
T2 construct: Whole entry; CHO Flp-In or HEK Flp-In cells; also called huNav1.5-beta1-beta2-beta3
The test is described as follows: FACS, CHO Flp-In, competitor 1 µM F010300703.

Test [3] has as its target T3, huNav1.7α + β1-β2-β3 (human, UniProt Q15858 1-1988; A5A6L6 19-218; O60939 30-215; Q2KI11 23-215).
T3 construct: also called huNav1.7-beta1-beta2-beta3; huNav1.7-β1-β2-β3
The test is described as follows: binding FACS, CHO Flp-In, periplasmic extract.

In test [4] the target is T2, huNav1.5-β1-β2-β3. The test is described as follows: binding FACS, CHO Flp-In, periplasmic extract.
Test [5] addresses T4, huNav157chim14-β1-β2-β3 (human).
T4 construct: Whole entry; HEK Flp-In cells; also called huNav157 chimera 14-beta1-beta2-beta3
The test is described as follows: binding FACS, HEK Flp-In.

Test [6] concerns the target T5, huNav157chim14 (human).
T5 construct: HEK Flp-In cells; also called huNav157 chimera 14
Nature of the test: binding FACS, HEK Flp-In.

Test [7] has as its target T2, huNav1.5-β1-β2-β3. The test is described as follows: binding FACS, HEK Flp-In.
The target in test [8] is T3, huNav1.7α + β1-β2-β3. The test is described as follows: FACS, CHO Flp-In, competitor 1 µM IRR00092.
Test [9] deals with T1, rhNav1.7α + β1-β2-β3. The test is described as follows: FACS, CHO Flp-In, competitor 1 µM IRR00092.
The target in test [10] is T2, huNav1.5-β1-β2-β3. The test is described as follows: FACS, CHO Flp-In, competitor 1 µM IRR00092.
Test [11] has as its target T6, huNav1.7α+β1 (human, UniProt Q15858 1-1988; Q07699 19-218).
T6 construct: also called huNav1.7-beta1; HEKa/β1
Nature of the test: binding FACS, HEK293 cells. As to the method:
(§1) Binding of the ISVDs to cell-expressed Nav1.7α was detected via murine anti-Flag (Sigma, catalog #F1804). Briefly, cells were resuspended in FACS buffer (PBS, 10% FBS, NaN₃) and transferred to a 96-well V-bottom plate at 1×10^5 cells/well. Purified FLAG3-tagged ISVD was diluted in FACS buffer and added to the cells for 30 minutes at 4° C. […] Prior to the read-out, the samples were resuspended in 1 μg/mL propidium iodide (Sigma, catalog #P4170) to exclude dead cells. Between each step, the cells were centrifuged for 5 minutes at 200 grams and washed with 100 μL/well FACS buffer.
(§2) Crude periplasmic extracts containing ISVDs from phage display selections (as described above) were screened in FACS for binding to huNav1.7α but not to huNav1.5a. […] As used in Table 8, the drawings, and throughout the description, Navβ1, Navβ2, and Navβ3 are human homologs unless specifically identified otherwise.

Test [12] concerns the target T7, huNav1.7α+β1-β2-β3 (human, UniProt Q15858 1-1988; Q07699 19-218; O60939 30-215; Q9NY72 23-215).
T7 construct: 5N11S variant; also called huNav1.7-beta1-beta2-beta3; huNav1.7α+Navβ1-Navβ2-Navβ3
Nature of the test: binding FACS, CHO FlpIn cells. As for the experimental part:
as §1, §2

In test [13] the target is T8, rhNav1.7α+β1-β2-β3 (rhesus monkey α subunit with human β …).
T8 construct: P2A cleaves it into α, β1, β2, β3; also called rhNav1.7-beta1-beta2-beta3
Nature of the test: binding FACS, CHO FlpIn cells. As for the experimental part:
as §1, §2

In test [14] the target is T7, huNav1.7α+β1-β2-β3. The test is described as follows: binding FACS, HEK FlpIn cells. As for the experimental part: as §1, §2
The target in test [15] is T9, huNav157chimera14+β1-β2-β3 (human, UniProt Q07699 19-218; O60939 30-215; Q9NY72 23-215).
T9 construct: HEK FlpIn line; also called huNav157 chimera 14-beta1-beta2-beta3; Nav157ch14-β1-β2-β3
The test is described as follows: binding FACS, HEK FlpIn cells. As for the experimental part: as §1, §2

Test [16] concerns the target T10, huNav1.5α+β1-β2-β3 (human, UniProt Q14524 1-2016; A5A6L6 19-218; O60939 30-215; Q2KI11 23-215).
T10 construct: in the cell P2A cleaves it into α, β1, β2, β3; also called huNav1.5-beta1-beta2-beta3
Nature of the test: binding FACS, HEK FlpIn cells. As to the method:
as §1, §2

Test [17] addresses T11, huNav1.3α (human, UniProt Q9NY46 1-2000).
T11 construct: also called huNav1.3 (alpha subunit)
Nature of the test: binding FACS on stable huNav1.x paralog HEK293T cell lines.

Test [18] deals with T12, huNav1.4α (human, UniProt P35499 1-1836).
T12 construct: also called huNav1.4 (alpha subunit)
The test is described as above.

The target of test [19] is T13, huNav1.8α (human, UniProt Q9Y5Y9 1-1956).
T13 construct: also called huNav1.8 (alpha subunit)
T13 sequence (Q9Y5Y9 whole entry): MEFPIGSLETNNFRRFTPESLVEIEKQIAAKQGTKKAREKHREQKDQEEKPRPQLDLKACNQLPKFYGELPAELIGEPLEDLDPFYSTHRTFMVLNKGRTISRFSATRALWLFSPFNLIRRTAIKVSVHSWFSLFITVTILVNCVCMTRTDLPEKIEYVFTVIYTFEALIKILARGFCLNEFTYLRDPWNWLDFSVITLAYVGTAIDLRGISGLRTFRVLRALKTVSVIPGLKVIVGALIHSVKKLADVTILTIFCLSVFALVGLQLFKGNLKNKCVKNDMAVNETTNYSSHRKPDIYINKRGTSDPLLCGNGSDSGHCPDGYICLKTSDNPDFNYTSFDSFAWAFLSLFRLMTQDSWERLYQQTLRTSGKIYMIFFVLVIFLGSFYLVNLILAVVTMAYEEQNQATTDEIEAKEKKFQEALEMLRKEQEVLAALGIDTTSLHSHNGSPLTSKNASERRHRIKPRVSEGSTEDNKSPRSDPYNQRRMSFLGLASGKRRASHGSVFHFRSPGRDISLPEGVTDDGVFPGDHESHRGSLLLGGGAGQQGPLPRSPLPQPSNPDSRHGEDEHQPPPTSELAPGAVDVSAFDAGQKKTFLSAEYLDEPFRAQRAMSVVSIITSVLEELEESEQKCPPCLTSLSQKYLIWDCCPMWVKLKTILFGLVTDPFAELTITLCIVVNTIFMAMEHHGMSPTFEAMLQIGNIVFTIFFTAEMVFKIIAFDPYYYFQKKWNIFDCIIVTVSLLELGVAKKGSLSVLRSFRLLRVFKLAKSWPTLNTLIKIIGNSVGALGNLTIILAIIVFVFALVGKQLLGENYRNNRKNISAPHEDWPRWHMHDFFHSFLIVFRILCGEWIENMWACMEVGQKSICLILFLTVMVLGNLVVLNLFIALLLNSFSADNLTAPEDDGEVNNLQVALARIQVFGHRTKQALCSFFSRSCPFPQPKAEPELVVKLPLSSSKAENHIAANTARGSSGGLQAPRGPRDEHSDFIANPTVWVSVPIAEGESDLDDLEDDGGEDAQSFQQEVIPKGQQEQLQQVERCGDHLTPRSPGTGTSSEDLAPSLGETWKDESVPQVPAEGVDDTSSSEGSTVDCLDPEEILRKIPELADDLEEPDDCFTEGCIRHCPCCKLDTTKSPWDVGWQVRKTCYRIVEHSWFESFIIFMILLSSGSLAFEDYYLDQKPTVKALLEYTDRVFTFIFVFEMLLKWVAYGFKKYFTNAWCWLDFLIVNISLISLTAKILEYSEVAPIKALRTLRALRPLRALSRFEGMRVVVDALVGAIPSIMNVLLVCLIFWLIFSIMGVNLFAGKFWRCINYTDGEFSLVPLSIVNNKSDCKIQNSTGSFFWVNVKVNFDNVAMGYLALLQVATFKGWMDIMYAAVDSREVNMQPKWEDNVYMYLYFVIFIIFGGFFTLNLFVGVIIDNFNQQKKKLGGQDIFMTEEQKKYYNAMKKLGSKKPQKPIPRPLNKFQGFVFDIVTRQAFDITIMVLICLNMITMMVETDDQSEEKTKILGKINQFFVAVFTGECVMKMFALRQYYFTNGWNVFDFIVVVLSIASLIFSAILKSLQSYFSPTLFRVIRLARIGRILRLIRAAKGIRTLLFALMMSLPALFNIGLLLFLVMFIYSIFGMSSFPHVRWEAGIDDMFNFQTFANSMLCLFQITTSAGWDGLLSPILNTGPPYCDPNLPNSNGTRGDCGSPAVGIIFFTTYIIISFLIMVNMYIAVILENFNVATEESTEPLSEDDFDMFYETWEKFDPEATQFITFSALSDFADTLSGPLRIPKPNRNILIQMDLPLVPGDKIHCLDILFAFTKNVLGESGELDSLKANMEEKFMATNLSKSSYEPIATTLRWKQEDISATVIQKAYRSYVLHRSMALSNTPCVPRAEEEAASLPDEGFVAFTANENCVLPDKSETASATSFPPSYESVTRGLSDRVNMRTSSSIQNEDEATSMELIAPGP
The test is described as above.

Test [20] concerns the target T14, huNav1.2α (human, UniProt Q99250 1-2005).
T14 construct: also called huNav1.2 (alpha subunit)
The test is described as above.

Test [21] addresses T15, huNav1.5α (human, UniProt Q14524 1-2016).
T15 construct: also called huNav1.5 (alpha subunit)
The test is described as above.

Test [22] addresses T16, huNav1.6α (human, UniProt Q9UQD0 1-1980).
T16 construct: also called huNav1.6 (alpha subunit)
The description is as above.

Test [23] has as its target huNav1.1α (human, UniProt P35498 1-2009). Described as above.
Test [24] deals with T17, huNav1.7(N146S, V194I, F276V, R277Q, E281V, V331M, E504D, D507E, S508N, N533S)-β1-β2-β3 (human, UniProt Q15858 1-1988; Q07699 19-218; O60939 30-215; Q9NY72 23-215).
T17 construct: Transiently on HEK293T cells; The text prints V1941 for V194I; also called chimeric variant of huNav1.7α with all DI huNav1.7α-rhNav1.7α polymorphisms
The test is described as follows: FACS on transiently transfected HEK293T cells. As for the experimental part: as §1
FACS binding studies (as described above) were performed on HEK293T cells transiently transfected with a chimeric variant of huNav1.7α in which all the huNav1.7α-rhNav1.7α polymorphisms of DI are present (N146S, V1941, F276V, R277Q, E281V, V331M, E504D, D507E, S508N, N533S). Replacing the huNav1.7α DI sequence for that of rhNav1.7α is sufficient to abolish the binding of F0103262CO2, F0103265B04, F0103262B06, and F0103265A11 to huNav1.7α, recapitulating the absence of binding on rhNav1.7α (see FIGS. 21A-21B).

T14 sequence (Q99250 whole entry): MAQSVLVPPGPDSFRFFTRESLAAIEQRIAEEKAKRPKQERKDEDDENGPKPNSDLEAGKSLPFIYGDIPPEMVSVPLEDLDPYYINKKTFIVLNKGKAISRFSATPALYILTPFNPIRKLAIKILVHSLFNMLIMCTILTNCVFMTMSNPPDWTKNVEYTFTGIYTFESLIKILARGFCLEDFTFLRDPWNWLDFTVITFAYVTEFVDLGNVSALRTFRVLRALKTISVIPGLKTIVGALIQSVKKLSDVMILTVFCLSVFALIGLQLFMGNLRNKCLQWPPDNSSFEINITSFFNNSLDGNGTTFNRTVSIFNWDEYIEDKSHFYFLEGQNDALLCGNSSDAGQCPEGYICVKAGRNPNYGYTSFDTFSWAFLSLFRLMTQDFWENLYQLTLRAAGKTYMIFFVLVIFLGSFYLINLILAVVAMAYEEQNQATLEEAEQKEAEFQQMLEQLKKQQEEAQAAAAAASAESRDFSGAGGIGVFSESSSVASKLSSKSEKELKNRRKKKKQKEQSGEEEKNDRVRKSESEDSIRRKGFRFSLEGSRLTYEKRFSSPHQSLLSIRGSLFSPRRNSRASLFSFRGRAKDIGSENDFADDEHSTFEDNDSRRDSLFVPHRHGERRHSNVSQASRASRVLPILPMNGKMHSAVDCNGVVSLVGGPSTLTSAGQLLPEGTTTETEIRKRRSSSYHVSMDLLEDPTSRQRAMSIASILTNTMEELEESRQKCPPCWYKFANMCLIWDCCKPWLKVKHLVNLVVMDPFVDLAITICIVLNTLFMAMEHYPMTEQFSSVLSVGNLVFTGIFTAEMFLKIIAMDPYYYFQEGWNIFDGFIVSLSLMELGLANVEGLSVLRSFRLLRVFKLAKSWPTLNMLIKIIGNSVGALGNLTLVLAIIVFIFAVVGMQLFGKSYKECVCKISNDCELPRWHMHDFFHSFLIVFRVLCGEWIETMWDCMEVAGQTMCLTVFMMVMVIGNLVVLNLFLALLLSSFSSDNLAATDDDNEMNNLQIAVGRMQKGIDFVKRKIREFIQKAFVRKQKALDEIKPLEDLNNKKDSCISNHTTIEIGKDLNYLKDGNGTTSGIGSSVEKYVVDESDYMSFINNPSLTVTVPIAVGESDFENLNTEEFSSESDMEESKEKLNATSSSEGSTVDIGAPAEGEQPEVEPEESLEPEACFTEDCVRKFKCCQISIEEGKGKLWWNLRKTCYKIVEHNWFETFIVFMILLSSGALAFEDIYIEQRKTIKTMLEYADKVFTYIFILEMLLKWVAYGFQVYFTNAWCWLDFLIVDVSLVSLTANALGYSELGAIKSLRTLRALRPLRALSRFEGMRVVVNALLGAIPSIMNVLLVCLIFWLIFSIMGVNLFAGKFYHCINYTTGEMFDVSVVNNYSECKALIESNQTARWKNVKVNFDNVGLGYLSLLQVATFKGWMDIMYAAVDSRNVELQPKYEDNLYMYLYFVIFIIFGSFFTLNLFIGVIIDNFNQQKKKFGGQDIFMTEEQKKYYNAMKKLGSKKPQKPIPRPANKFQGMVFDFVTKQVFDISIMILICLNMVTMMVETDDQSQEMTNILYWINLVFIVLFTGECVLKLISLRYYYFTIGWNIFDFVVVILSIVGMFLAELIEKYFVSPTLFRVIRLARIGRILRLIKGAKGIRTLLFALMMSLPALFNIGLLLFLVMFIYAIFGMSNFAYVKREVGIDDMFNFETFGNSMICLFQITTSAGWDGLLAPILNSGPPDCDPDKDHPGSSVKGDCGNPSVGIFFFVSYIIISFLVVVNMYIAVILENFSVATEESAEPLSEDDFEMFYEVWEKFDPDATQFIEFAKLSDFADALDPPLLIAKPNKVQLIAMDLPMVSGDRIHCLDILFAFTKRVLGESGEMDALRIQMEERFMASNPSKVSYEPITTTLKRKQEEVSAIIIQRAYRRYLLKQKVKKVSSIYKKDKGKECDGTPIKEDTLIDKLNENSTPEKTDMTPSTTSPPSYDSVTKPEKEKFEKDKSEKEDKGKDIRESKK

B1: F0103PMP495F09 (bispecific antibody)
chain: EVQLVESGGGLVQPGGSLRLSCAASGSIFNINSMAWYRRAPGKQRELVASSTNGGSTNYADSVKGRFTISRDNAKRVYLQMNSLTPEDTAVYYCRALLQPSIYDISRTYWGQGTLVTVSSGGGGSGGGGSGGGGSGGGGSGGGGSGGGGSGGGGSGGGGSGGGGSGGGGSEVQLVESGGGLVQAGSSLSLSCAASGRALSTYAMGWFRQAPGKEREFVARISRSGITTYYTDSVKGRFTISRDRAKDTVYLQMNSLKPEDTAIYLCAADASTNPAGYYLRNRYDYWGQGTLVTVSSAAADYKDHDGDYKDHDIDYKDDDDKGAAHHHHHHKAAGGGGG
notes: crude periplasmic extract; also called F103275B05(N93R)-50GS-F0103495F09 bivalent ISVD
Take B1: the MFI in test [1] amounted to 6280 MFI; in [2], 645 MFI; in test [3] it was 35600 MFI; in test [4], 483 MFI; in test [5], 128000 MFI; in test [6], 45100 MFI. In addition, the MFI came to 976 MFI in test [7], 93300 MFI in [8], 90400 MFI in [9] and 930 MFI in test [10].

B2: F0103PMP500E03 (bispecific antibody)
chain: EVQLVESGGGLVQPGGSLRLSCAASGSIFNINSMAWYRRAPGKQRELVASSTNGGSTNYADSVKGRFTISRDNAKRVYLQMNSLTPEDTAVYYCRALLQPSIYDISRTYWGQGTLVTVSSGGGGSGGGGSGGGGSGGGGSGGGGSGGGGSGGGGSGGGGSGGGGSGGGGSEVQLVESGGGLVQAGGSLRLSCAASGRTFSRYQMGWFRQAPGKEREFVAYISWSGSTRYVDSVKGRFTISRDNAKNTVYLQMNSLKPEDTAVYHCAAGTAGIISSRPETYDSWGQGTQVTVSSAAADYKDHDGDYKDHDIDYKDDDDKGAAHHHHHHKAA
notes: crude periplasmic extract; also called F103275B05(N93R)-50GS-F0103500E03 bivalent ISVD
Regarding B2, the MFI in test [1] was 21500 MFI; in [2] it was 852 MFI; in [3], 22400 MFI; in test [4], 521 MFI; in [5], 87200 MFI; in test [6], 47300 MFI. The MFI in [7] is 1110 MFI; in test [8], 33700 MFI; in test [9], 96900 MFI; in [10] it was 975 MFI.

B3: F0103PMP505D08 (bispecific antibody)
chain: EVQLVESGGGLVQPGGSLRLSCAASGSIFNINSMAWYRRAPGKQRELVASSTNGGSTNYADSVKGRFTISRDNAKRVYLQMNSLTPEDTAVYYCRALLQPSIYDISRTYWGQGTLVTVSSGGGGSGGGGSGGGGSGGGGSGGGGSGGGGSGGGGSGGGGSGGGGSGGGGSEVQLVESGGGLVQAGGSLRLSCVTSGRTSDLSTMNWFRQAPGKEREFVARITRRGSTYYAESVKERFIISRDNAKNTVYLQMNSLKPEDTANYYCTAASEMGYHYRGQGTQVTVSSAAADYKDHDGDYKDHDIDYKDDDDKGAAHHHHHHKAAGGGGG
notes: crude periplasmic extract; also called F103275B05(N93R)-50GS-F0103505D08 bivalent ISVD
For B3, the MFI in [1] turned out to be 22500 MFI; in test [2] it was 845 MFI; in test [3], 106000 MFI; in [4], 891 MFI; in test [5], 136000 MFI; in [6], 78400 MFI. In addition, the MFI was 1200 MFI in test [7], 95400 MFI in [8], 108000 MFI in test [9] and 964 MFI in [10].

B4: F0103262C02 (parental)-FLAG-HIS6 (VHH)
VHH: EVQLVESGGGLVQAGGSLTLSCAASGLPFGLYILGWIRRAPGKERDFVAAISRSGRDTVYANSVKGRFTISRDNAKNMVYLRMDNLRPEDTAAYYCAVDSVPRGTPTITESEYAIWGQGTLVTVSS
notes: also called F0103262CO2; F103262CO2
In the case of B4, the 50% effective concentration (EC50) is 180 nM in [11], 320 nM in test [12], 380 nM in test [14] and 470 nM in test [15]. Moreover, the binding result in test [13], in [16], in test [17], in test [18], in test [19] and in [20] was “no binding” in each case. Moreover, the binding result in test [21] is recorded as “no binding”; in test [22] it was “no binding”; in test [23] it was “no binding”; in test [24], “no binding (tested: 1 µM)”.

The record behind these values is patent US20240002497A1 (Merck Sharp & Dohme, published 2024).
